Test results from paper PMC2783235.
Blank lines part the entries; values can stand above or below the substance they belong to.

What was measured:
[1] = biological target: I67C (single-Cys mutant of FT-HT-Xa) (S. cerevisiae) (UniProt D6VTK4); experiment: cross-linking
[2] = biological target: I67C (single-Cys mutant of FT-HT-Xa) (S. cerevisiae) (UniProt D6VTK4); experiment: cross-linking; remark: listed apart in the source
[3] = biological target: I67C (single-Cys mutant of FT-HT-Xa) (S. cerevisiae) (UniProt D6VTK4); experiment: cross-linking; remark: listed apart in the source
[4] = biological target: I67C (single-Cys mutant of FT-HT-Xa) (S. cerevisiae) (UniProt D6VTK4); experiment: SDS-PAGE and western blot of membranes
[5] = biological target: L66C (single-Cys mutant of FT-HT-Xa) (S. cerevisiae) (UniProt D6VTK4); experiment: cross-linking
[6] = biological target: L66C (single-Cys mutant of FT-HT-Xa) (S. cerevisiae) (UniProt D6VTK4); experiment: cross-linking; remark: listed apart in the source
[7] = biological target: L66C (single-Cys mutant of FT-HT-Xa) (S. cerevisiae) (UniProt D6VTK4); experiment: cross-linking; remark: listed apart in the source
[8] = biological target: L66C (single-Cys mutant of FT-HT-Xa) (S. cerevisiae) (UniProt D6VTK4); experiment: SDS-PAGE and western blot of membranes
[9] = biological target: M69C (single-Cys mutant of FT-HT-Xa) (S. cerevisiae) (UniProt D6VTK4); experiment: cross-linking
[10] = biological target: M69C (single-Cys mutant of FT-HT-Xa) (S. cerevisiae) (UniProt D6VTK4); experiment: cross-linking; remark: listed apart in the source
[11] = biological target: M69C (single-Cys mutant of FT-HT-Xa) (S. cerevisiae) (UniProt D6VTK4); experiment: cross-linking; remark: listed apart in the source
[12] = biological target: M69C (single-Cys mutant of FT-HT-Xa) (S. cerevisiae) (UniProt D6VTK4); experiment: SDS-PAGE and western blot of membranes
[13] = biological target: T278C (single-Cys mutant of FT-HT-Xa) (S. cerevisiae) (UniProt D6VTK4); experiment: cross-linking
[14] = biological target: T278C (single-Cys mutant of FT-HT-Xa) (S. cerevisiae) (UniProt D6VTK4); experiment: cross-linking; remark: listed apart in the source
[15] = biological target: T278C (single-Cys mutant of FT-HT-Xa) (S. cerevisiae) (UniProt D6VTK4); experiment: cross-linking; remark: listed apart in the source
[16] = biological target: T278C (single-Cys mutant of FT-HT-Xa) (S. cerevisiae) (UniProt D6VTK4); experiment: SDS-PAGE and western blot of membranes
[17] = biological target: T279C (single-Cys mutant of FT-HT-Xa) (S. cerevisiae) (UniProt D6VTK4); experiment: cross-linking
[18] = biological target: T279C (single-Cys mutant of FT-HT-Xa) (S. cerevisiae) (UniProt D6VTK4); experiment: cross-linking; remark: listed apart in the source
[19] = biological target: T279C (single-Cys mutant of FT-HT-Xa) (S. cerevisiae) (UniProt D6VTK4); experiment: cross-linking; remark: listed apart in the source
[20] = biological target: T279C (single-Cys mutant of FT-HT-Xa) (S. cerevisiae) (UniProt D6VTK4); experiment: SDS-PAGE and western blot of membranes
[21] = biological target: S288C (single-Cys mutant of FT-HT-Xa) (S. cerevisiae) (UniProt D6VTK4); experiment: radioligand binding
[22] = biological target: I67C (single-Cys mutant of FT-HT-Xa) (S. cerevisiae) (UniProt D6VTK4); experiment: radioligand binding
[23] = biological target: L291C (single-Cys mutant of FT-HT-Xa) (S. cerevisiae) (UniProt D6VTK4); experiment: radioligand binding
[24] = biological target: W295C (single-Cys mutant of FT-HT-Xa) (S. cerevisiae) (UniProt D6VTK4); experiment: radioligand binding
[25] = biological target: A296C (single-Cys mutant of FT-HT-Xa) (S. cerevisiae) (UniProt D6VTK4); experiment: radioligand binding
[26] = biological target: L287C (single-Cys mutant of FT-HT-Xa) (S. cerevisiae) (UniProt D6VTK4); experiment: radioligand binding
[27] = biological target: V68C (single-Cys mutant of FT-HT-Xa) (S. cerevisiae) (UniProt D6VTK4); experiment: radioligand binding
[28] = biological target: L289C (single-Cys mutant of FT-HT-Xa) (S. cerevisiae) (UniProt D6VTK4); experiment: radioligand binding
[29] = biological target: L283C (single-Cys mutant of FT-HT-Xa) (S. cerevisiae) (UniProt D6VTK4); experiment: radioligand binding
[30] = biological target: V286C (single-Cys mutant of FT-HT-Xa) (S. cerevisiae) (UniProt D6VTK4); experiment: radioligand binding
[31] = biological target: L66C (single-Cys mutant of FT-HT-Xa) (S. cerevisiae) (UniProt D6VTK4); experiment: radioligand binding
[32] = biological target: L284C (single-Cys mutant of FT-HT-Xa) (S. cerevisiae) (UniProt D6VTK4); experiment: radioligand binding
[33] = biological target: S292C (single-Cys mutant of FT-HT-Xa) (S. cerevisiae) (UniProt D6VTK4); experiment: radioligand binding
[34] = biological target: T65C (single-Cys mutant of FT-HT-Xa) (S. cerevisiae) (UniProt D6VTK4); experiment: radioligand binding
[35] = biological target: S293C (single-Cys mutant of FT-HT-Xa) (S. cerevisiae) (UniProt D6VTK4); experiment: radioligand binding
[36] = biological target: L64C (single-Cys mutant of FT-HT-Xa) (S. cerevisiae) (UniProt D6VTK4); experiment: radioligand binding
[37] = biological target: V68C (single-Cys mutant of FT-HT-Xa) (S. cerevisiae) (UniProt D6VTK4); experiment: cross-linking
[38] = biological target: V68C (single-Cys mutant of FT-HT-Xa) (S. cerevisiae) (UniProt D6VTK4); experiment: cross-linking; remark: listed apart in the source
[39] = biological target: V68C (single-Cys mutant of FT-HT-Xa) (S. cerevisiae) (UniProt D6VTK4); experiment: cross-linking; remark: listed apart in the source
[40] = biological target: V68C (single-Cys mutant of FT-HT-Xa) (S. cerevisiae) (UniProt D6VTK4); experiment: SDS-PAGE and western blot of membranes

percent dimer [1]: 17.4% | percent dimer [2]: 17% | percent dimer [3]: 18% | percent dimer [4]: 19.3%
Substance: I67C (single-Cys mutant of FT-HT-Xa) (from UniProt D6VTK4 1-431) (receptor)

percent dimer [5]: 13.2% | percent dimer [6]: 11.9% | percent dimer [7]: 11.9% | percent dimer [8]: 12.3%
Substance: L66C (single-Cys mutant of FT-HT-Xa) (from UniProt D6VTK4 1-431) (receptor)

percent dimer [9]: 17% | percent dimer [10]: 14.2% | percent dimer [11]: 28.9% | percent dimer [12]: 17.7%
Substance: M69C (single-Cys mutant of FT-HT-Xa) (from UniProt D6VTK4 1-431) (receptor)

Kd relative to FT-HT-Xa (relative to FT-HT-Xa) [21]: 4.1 | Kd relative to FT-HT-Xa (relative to FT-HT-Xa) [22]: 2.2 | Kd relative to FT-HT-Xa (relative to FT-HT-Xa) [23]: 1.7 | Kd relative to FT-HT-Xa (relative to FT-HT-Xa) [24]: 1.3 | Kd relative to FT-HT-Xa (relative to FT-HT-Xa) [25]: 0.4 | Kd relative to FT-HT-Xa (relative to FT-HT-Xa) [26]: 1.1 | Kd relative to FT-HT-Xa (relative to FT-HT-Xa) [27]: 1.1 | Kd relative to FT-HT-Xa (relative to FT-HT-Xa) [28]: 2.1 | Kd relative to FT-HT-Xa (relative to FT-HT-Xa) [29]: 4.7 | Kd relative to FT-HT-Xa (relative to FT-HT-Xa) [30]: 1.9 | Kd relative to FT-HT-Xa (relative to FT-HT-Xa) [31]: 0.5 | Kd relative to FT-HT-Xa (relative to FT-HT-Xa) [32]: 1.1 | Kd relative to FT-HT-Xa (relative to FT-HT-Xa) [33]: 0.2 | Kd relative to FT-HT-Xa (relative to FT-HT-Xa) [34]: 1.5 | Kd relative to FT-HT-Xa (relative to FT-HT-Xa) [35]: 2.5 | Kd relative to FT-HT-Xa (relative to FT-HT-Xa) [36]: 2.5
Substance: Tritiated α-factor ([3H]α-factor) (peptide)

More lines, now with the values behind:

Substance: T278C (single-Cys mutant of FT-HT-Xa) (from UniProt D6VTK4 1-431) (receptor)
percent dimer [13]: 12.5% | percent dimer [14]: 65.8% | percent dimer [15]: 12.4% | percent dimer [16]: 15.1%

Substance: T279C (single-Cys mutant of FT-HT-Xa) (from UniProt D6VTK4 1-431) (receptor)
percent dimer [17]: 15.8% | percent dimer [18]: 10.1% | percent dimer [19]: 10.9% | percent dimer [20]: 17.3%

Substance: V68C (single-Cys mutant of FT-HT-Xa) (from UniProt D6VTK4 1-431) (receptor)
percent dimer [37]: 98.3% | percent dimer [38]: 99.2% | percent dimer [39]: 98.8% | percent dimer [40]: 28.5%
